One test has as its target T1, ALK3RD (Homo sapiens, UniProt P36894, Q233D).
T1 construct: expressed in transfected cells; host or cells: HEPG2
In words: BRE reporter assay in HEPG2 cells with constitutively active ALK3. The test is classed as cell-based. The following applies: RSPO treatment. The source says: Alkaline phosphatase (AP) fusions with RSPOs (human RSPO1^ΔC-AP-pCDNA3, RSPO2^ΔC-AP-pCDNA3, RSPO2^ΔC-AP-pCS2+, RSPO3^ΔC-AP-pCDNA3, murine RSPO4^ΔC-pCDNA3) were generated by replacing the C-terminal domain (ΔC) by AP and used to produce conditioned media. Human RSPO2 wild-type (RSPO2), Furin1 and Furin2 deletion mutants (RSPO2^ΔFU), and TSP1 domain deletion mutant (RSPO2^ΔTSP) are ORFs lacking the C-terminal domain, C-terminally tagged with a Flag-tag and subcloned into pCS2+. R1-TSP^R2, R1-TSP^R2-AP and R1-TSP^R2-Flag plasmids were generated by fusion PCR and cloned in pCS2+. Conditioned media from all RSPO constructs were adjusted to equal concentration by western blot and AP activity measurement, and further validated by WNT reporter assay using HEK293T cells. The extracellular domain of ALK3 (ALK3^ECD) was subcloned in AP-pCS2+ for generating conditioned medium and used in in vitro binding assays. Constitutively active forms of ALK2,3,6 (ALK^QD) were generated by Gln-Asp mutations as described in Fujii et al. (1999), Mol Biol Cell 10, 3801-3813, doi: 10.1091/mbc.10.11.3801. HA-tagged ALK3 was a gift from Dr. D. Koinuma (Goto et al. (2007), J Biol Chem 282, 20603-20611, doi: 10.1074/jbc.M702100200). For Xenopus mRNA microinjection, Xenopus laevis BMP4-pCS2+, myc-tagged RSPO2^ΔC-myc-pCS2+, RSPO2^ΔFU-myc-pCS2+ and RSPO2^ΔTSP-myc-pCS2+ plasmids, DNALK3-pCS2+, membrane-RFP, EYFP-tagged human ALK3-pCS2+ were used for in vitro transcription. Human ZNRF3 and ZNRF3^ΔRING constructs were gifts from Dr. F. Cong (Novartis; Hao et al. (2012), Nature 485, 195-200, doi: 10.1038/nature11019), and ORFs were subcloned in flag-pCS2+ for in vitro transcription.
BRE luciferase assays were executed using 300,000 ml^−1 of HEPG2 cells in 24-well plates. PGL3-BRE-Luciferase (500 ng ml^−1) and pRL-TK-Renilla plasmids (50 ng ml^−1) were transfected using Lipofectamine 3000. […] Luciferase activity was measured with the Dual luciferase reporter assay system (Promega E1960). Firefly luminescence (BRE) was normalized to Renilla. […]
(In general: In a reporter assay the amount or activity of a reporter protein is the signal.)

The target of the next test is T2, ALK3 (Homo sapiens, UniProt P36894).
T2 construct: expressed in transfected cells; host or cells: HEK293T
T2 sequence (P36894 24-532): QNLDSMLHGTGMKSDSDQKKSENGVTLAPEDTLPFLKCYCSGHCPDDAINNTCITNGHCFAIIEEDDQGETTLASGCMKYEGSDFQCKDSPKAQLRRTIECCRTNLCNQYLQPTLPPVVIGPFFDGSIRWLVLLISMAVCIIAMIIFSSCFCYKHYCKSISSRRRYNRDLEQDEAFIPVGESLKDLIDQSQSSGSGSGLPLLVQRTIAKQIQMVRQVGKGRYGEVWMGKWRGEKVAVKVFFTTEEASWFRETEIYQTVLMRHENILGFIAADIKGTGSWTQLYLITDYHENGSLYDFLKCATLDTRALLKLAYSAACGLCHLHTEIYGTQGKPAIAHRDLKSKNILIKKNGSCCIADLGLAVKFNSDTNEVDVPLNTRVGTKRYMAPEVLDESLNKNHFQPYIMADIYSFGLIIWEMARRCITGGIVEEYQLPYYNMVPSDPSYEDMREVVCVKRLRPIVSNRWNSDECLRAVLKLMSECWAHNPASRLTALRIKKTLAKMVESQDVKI
The test is described as follows: Cell surface binding assay in HEK293T cells transfected with ALK3. How it is done: (§1) Cell surface binding assays were carried essentially out as previously described (Dosch et al. (1997), Development 124, 2325-2334). In brief, human ALK3-HA and Xenopus tropicalis LGR4 DNA were transfected in HEK293T cells, and incubated with 1.5 U ml^−1 conditioned media for 3 hours on ice. After several washes and crosslinking, cells were treated with 2 mM Levamisole for 20 min to inactivate endogenous AP activities and developed with BM-Purple (Sigma 11442074001). Cells were mounted with Fluoromount G. Images were obtained using LEICA DMIL microscope/Canon DS126311 camera.

Another test addresses T3, LGR4 (Xenopus tropicalis, UniProt B0BLW3).
T3 construct: expressed in transfected cells; host or cells: HEK293T
T3 sequence (B0BLW3 22-955): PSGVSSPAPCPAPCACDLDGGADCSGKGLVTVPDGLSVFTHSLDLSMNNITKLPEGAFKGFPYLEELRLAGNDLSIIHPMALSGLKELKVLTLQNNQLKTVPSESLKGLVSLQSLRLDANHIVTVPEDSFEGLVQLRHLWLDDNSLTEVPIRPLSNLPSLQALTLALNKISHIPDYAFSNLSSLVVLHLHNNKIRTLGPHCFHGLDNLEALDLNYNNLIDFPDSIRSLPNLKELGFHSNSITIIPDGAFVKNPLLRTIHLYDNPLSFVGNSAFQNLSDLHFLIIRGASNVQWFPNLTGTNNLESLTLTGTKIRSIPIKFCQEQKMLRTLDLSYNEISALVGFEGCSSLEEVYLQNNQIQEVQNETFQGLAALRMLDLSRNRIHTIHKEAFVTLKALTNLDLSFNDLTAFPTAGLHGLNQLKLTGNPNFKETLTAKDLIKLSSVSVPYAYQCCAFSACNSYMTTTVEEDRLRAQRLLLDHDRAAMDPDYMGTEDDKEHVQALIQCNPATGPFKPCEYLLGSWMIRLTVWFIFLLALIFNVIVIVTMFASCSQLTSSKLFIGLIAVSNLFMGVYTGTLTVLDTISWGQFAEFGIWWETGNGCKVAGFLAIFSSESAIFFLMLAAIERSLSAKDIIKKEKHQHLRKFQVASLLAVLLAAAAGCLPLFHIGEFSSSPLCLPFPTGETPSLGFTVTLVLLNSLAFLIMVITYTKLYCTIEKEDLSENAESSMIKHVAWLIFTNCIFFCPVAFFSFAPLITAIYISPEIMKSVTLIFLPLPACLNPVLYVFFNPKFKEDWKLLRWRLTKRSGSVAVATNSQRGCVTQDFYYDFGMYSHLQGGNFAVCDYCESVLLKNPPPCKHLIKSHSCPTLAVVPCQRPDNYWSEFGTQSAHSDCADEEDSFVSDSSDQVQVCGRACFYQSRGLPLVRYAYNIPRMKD
The test is described as follows: Cell surface binding assay in HEK293T cells transfected with LGR4. As to the method:
as §1

T1 sequence (P36894 24-532 Q233D): as the sequence (P36894 24-532) above, with Q210D counted along it

B1: RSPO2: human R-spondin 2 protein (SEQ ID NO:1); conditioned medium or recombinant (Peprotech 120-43) (protein, listed as Homo sapiens)
chain: MQFRLFSFALIILNCMDYSHCQGNRWRRSKRASYVSNPICKGCLSCSKDNGCSRCQQKLFFFLRREGMRQYGECLHSCPSGYYGHRAPDMNRCARCRIENCDSCFSKDFCTKCKVGFYLHRGRCFDECPDGFAPLEETMECVEGCEVGHWSEWGTCSRNNRTCGFKWGLETRTRQIVKKPVKDTILCPTIAESRRCKMTMRHCPGGKRTPKAKEKRNKKKKRKLIERAQEQHSVFLATDRANQ
For the molecule B1, the “BMP signaling induced by constitutively active ALK3” value in the test with ALK3RD was “specifically inhibited”. Besides, the ALK3 binding entry with ALK3 is “required the TSP1—but not the FU domains”. Also, the LGR binding result in the test with LGR4 is listed as “required the FU domains but not TSP1”.
